Results taken from patent US20250188151A1, “C-JUN ANTAGONIST PEPTIDES” (The University of Bath, priority 2022, published 2025).
Read-outs that look alike come from different tables or passages of the source.

Tests used:
cJun bZIP [1] = target: T1, cJun bZIP (human, UniProt P05412 252-308, limits assumed); test: CD spectra at 20 °C
T1 construct: Purified from a His-SUMO fusion with the tag cleaved off; also called c-Jun bZIP domain; 60 amino acid c-Jun bZIP construct
T1 chain: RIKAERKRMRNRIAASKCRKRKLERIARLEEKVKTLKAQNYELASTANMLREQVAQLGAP

cJun bZIP [2] = target: T1, cJun bZIP; test: cell-based or functional assay
[3] = target: T2, cJun bZIP/TRE DNA interaction (transcriptional block of TRE-mDHFR) (Homo sapiens, UniProt P05412, S292Y); test: Transcription Block Survival (TBS) assay: colony counting and growth competition in E. coli; assay type: cell-based; settings: vs transcriptionally blocked cells (TRE-mDHFR + cJun bZIP)
T2 construct: expressed in transfected cells; host or cells: E. coli BL21 Gold carrying pES300d-TRE-mDHFR and pES230d-cJun bZIP
From the text: Library Construction and TBS Assay: Library inserts were produced using PCR fill-in reactions from synthesised primers (Sigma) with degenerate codons at the desired positions to produce the correct residue options. The library was subcloned using SacI and AscI sites into the pET24a plasmid containing A-FosW. The primers used were cJun-Hinge-Lib-F: 5′-[…] TATGCC-3′ (SEQ ID NO: 49) and cJun-Hinge-Lib_R: 5′-[…] GTTC-3′ (SEQ ID NO: 50). The library DNA was transformed into NEB 10-beta electrocompetent E. coli cells. The following equation was utilised to determine library coverage by the number of single colonies: E=100×(1−1/n)^m where E is the percentage of the library missing, m is the number of colonies collected and n is the library size. […] Library DNA quality was assessed by sequencing both the DNA pool and a number of single colonies to show degenerate codons in the correct positions in the pool and to show a diversity of library members from single colonies. The pool of library DNA was transformed into BL21 Gold cells already containing pES300d-TRE-mDHFR and pES230d-cJun bZIP.
Selective pressure is applied by growing the bacteria in M9 minimal media with TMP (2-4 μM) alongside ampicillin, kanamycin and chloramphenicol to maintain the required plasmids, and IPTG (1 mM) to induce protein expression. The library transformants were first plated out onto selective agar plates (2 μM TMP) and grown at 37° C. for 72-96 h. Optimisation experiments (FIG. 5) indicate that 4 μM TMP is optimum for selection however a lower stringency is used initially before selection is increased in later steps. Colonies from this first round of selection were pooled and serially grown in liquid culture at starting OD600 of 0.05 and grown at 37° C. with shaking at 200 rpm until the OD600 reached 0.6. TMP concentration was 2 μM in the first liquid culture passage before it was increased to the optimum 4 μM in subsequent passages. […] At each passage step, a sample of the culture was plated on LB agar (supplemented with antibiotics to maintain plasmids) to select and sequence individual colonies, and a DNA pool was also sequenced. This allows the occurrence of library members to be monitored as winner sequences are selected for. Assay Validation experiments utilised a modified assay methodology whereby overnight cultures from glycerol stocks of the Control Strains (Table 2) were diluted to OD600=0.5 and 50 μL was plated on a selective M9 minimal medium agar plate.
Transcription block survival (TBS) is an intracellular assay that utilises cell survival as a readout. […] This enzyme is absolutely essential for survival since it is required for the production of purines needed for DNA and amino acid synthesis. […]. We produced a mDHFR gene (FIGS. 2 and 3) by rational design to introduce 15 TRE sites into the coding DNA sequence to allow a robust cJun transcriptional block whilst minimising alteration to the expressed protein (TRE-mDHFR). In particular, the resulting TRE-mDHFR construct was produced via two silent and thirteen conservative mutations. […] The accessible surface areas of all other amino acid residues were calculated using the ‘Accessible Surface Area and Accessibility Calculation for Protein’ tool (http://cib.cf.ocha.ac.jp/bitool/ASA/). […]

TRE DNA = test: CD control: peptide with TRE DNA; assay type: binding
Protocol: Circular Dichroism (CD): An Applied Photophysics Chirascan was used for CD measurements, with a 200 μL sample in a 1 mm path length CD cell. Protein/DNA samples were suspended in 150 mM potassium phosphate, 150 mM potassium fluoride and 5 mM TCEP at pH 7.4 and were equilibrated for 30 minutes before measurement. […] These scans were averaged and converted to molar residue ellipticities (MRE).

cJun bZIP [4] = target: T1, cJun bZIP
cJun bZIP [5] = target: T1, cJun bZIP; test: ITC, antagonist injected into cJun, one site model
cJun = cJun (Homo sapiens, UniProt P05412, S292Y); test: CD dimer exchange experiments; settings: A-FosW mixed with preformed HingeW/cJun heterodimer
Protocol: Circular Dichroism (CD): An Applied Photophysics Chirascan was used for CD measurements, with a 200 μL sample in a 1 mm path length CD cell. Protein/DNA samples were suspended in 150 mM potassium phosphate, 150 mM potassium fluoride and 5 mM TCEP at pH 7.4 and were equilibrated for 30 minutes before measurement. […] These scans were averaged and converted to molar residue ellipticities (MRE). Thermal denaturation experiments were performed by measuring the ellipticity at 222 nm over a 1 to 90° C. gradient at 1° C. increments.

cJun bZIP [6] = target: cJun bZIP (Homo sapiens, UniProt P05412, S292Y); test: CD spectra and thermal denaturation of peptide/cJun heterodimers
[7] = CD spectra and thermal denaturation of peptide-only samples (helicity, homodimer Tm)

B1: A-FosW (peptide)
peptide: MASLEQRAEELARENEELEKEAEELEQELDELQAEIEQLEERNYALRKEIEDLQKQLEKLGAPHHHHHH
notes: Recombinant, capped and C-terminally 6xHis-tagged; also called rationally designed A-FosW template; parent peptide
In the case of B1, the “increase in α-helicity relative to the average of the two component spectra” value (cJun bZIP [1]) is reported as 39%, the “IC50, CD antagonism of cJun/TRE DNA (peak at ~281 nM)” value (cJun bZIP [2]) is reported as 16 µM and the “IC50, EMSA of free TRE DNA band” value (cJun bZIP [2]) is reported as 12.1 µM. For the same molecule, the “TBS assay colony numbers relative to TRE-mDHFR only” value (cJun bZIP [2]) was 60%, the “effect on TRE-mDHFR transcriptional block / colony numbers” value [3] was “restore cell survival” and the “interaction with TRE DNA” value (TRE DNA) was “no interaction”. The “Tm (° C.) (CD)” value (cJun bZIP [4]) was 69.9 ° C, the “ΔTm from component average (CD)” value (cJun bZIP [4]) was 27.5 ° C and the Kd (cJun bZIP [5]) was 88.3 nM. The “TΔS (ITC)” value (cJun bZIP [5]) was -113 kJ/mol, the “ΔG (ITC)” value (cJun bZIP [5]) was -40 kJ/mol and the “ΔH (ITC)” value (cJun bZIP [5]) was -153 kJ/mol. The Tm (° C.) (CD) was 45.1 ° C, the “dimer exchange” value (cJun) was “no dimer exchange had occurred” and the “Fraction helicity at 20° C. (CD)” value (cJun bZIP [6]; heterodimer with c-Jun, equimolar, 10 μM total) was 38.7%. The “temperature of smaller initial transition (double transition)” value (cJun bZIP [6]; heterodimer with cJun) was about 30 °C, the “Tm (° C.) (CD)” value (cJun bZIP [6]; heterodimer with cJun bZIP, Example 1) was 69.9 °C and the “ΔTm from component average (CD)” value (cJun bZIP [6]; heterodimer with cJun vs average of component profiles) was 27.5 °C. For the same molecule, the “Fraction helicity at 20° C. (CD)” value ([7]; peptide alone) was 40.1% and the “Tm (° C.) (CD)” value ([7]; peptide alone (homodimer)) was 45.1 °C.
